{
  "source": "patent US20240117030A1",
  "about": "(Pfizer, published 2024)",
  "binders": {"B1": {"name": "IL13433-0006 (other)", "heavy": "EVQLVESGGGLVQPGGSLRLSCAASGFTFSSYAMSWVRQAPGKGLEWVASISSGDTTYYPDSVKGRFTISRDNAKNSLYLQMNSLRAEDTAVYYCARNEGYYFGLTLWGQGTLVTVSSASTKGPSVFPKAPSSKSTSGGTAALGCLVKDYFPEPVTVSWNSGALTSGVHTFPAVLQSSGLYSLSSSVTVPSSSLGTQTYICNVNHKPSNTKVDKKVEPKSCDKTHTCPPCPAPEAAGAPSVFLFPPKPKDTLMISRTPEVTCVVVDVSHEDPEVKFNWYVDGVEVHNAKTKPREEQYNSTYRVVSVLTVLHQDWLNGKEYKCKVSNKALPAPIEKTISKAKGQPREPQVCTLPPSREEMTKNQVSLWCLVKGFYPSDIAVEWESNGQPENNYKTTPPVLDSDGSFFLYSKLTVDKSRWQQGNVFSCSVMHEALHNHYTQKSLSLSPGK", "chain 1": "DIQMTQSPSSLSASVGDRVTITCKASQNINKHLDWYQQKPGKAPKLLIYFTNNLQTGVPSRFSGSGSGTDFTLTISSLQPEDFATYYCFQYNQGWTFGGGTKVEIKRTVAAPSVFIFPPSDEQLKSGTASVVCLLNNFYPREAKVQWKVDNALQSGNSQESVTEQDSKDSTYSLSSTLTLSKADYEKHKVYACEVTHQGLSSPVTKSFNRGECGGGGSEVTLRESGPALVKPTQTLTLTCTFSGFSLSNFGEGLSWIRQPPGKGLEWLAHIYWDDDKRYNPSLKSRLTISKDTSRNQVVLTMTNMDPVDTATYYCARRETVFYWYFDVWGQGTTVTVSSASTKGPSVFPEAPSSKSTSGGTAALGCLVKDYFPEPVTVSWNSGALTSGVHTFPAVLQSSGLYSLGSVVTVPSSSLGTQTYICNVNHKPSNTKVDKKVEPKSCDKTHTCPPCPAPEAAGAPSVFLFPPKPKDTLMISRTPEVTCVVVDVSHEDPEVKFNWYVDGVEVHNAKTKPREEQYNSTYRVVSVLTVLHQDWLNGKEYKCKVSNKALPAPIEKTISKAKGQPREPQVYTLPPCREEMTKNQVSLSCAVKGFYPSDIAVEWESNGQPENNYKTTPPVLDSDGSFFLVSKLTVDKSRWQQGNVFSCSVMHEALHNHYTQKSLSLSPGK", "light 1": "DIQMTQSPSSLSASVGDRVTITCKASESVDHFGWSLVHWYQQKPGKAPKLLIYRASNLESGVPSRFSGSGSGTDFTLTISSLQPEDFATYYCQQSNEDPWTFGGGTKVEIKRTVAAPSVFIFPPSDEQLKSGTASVSCLLNNFYPREAKVQWKVDNALQSGNSQESVTEQDSKDSTYSLDSTLTLSKADYEKHKVYACEVTHQGLSSPVTKSFNRGEC", "light 2": "B1 light 1 with E27Q, H31E, F32D, W34D, L36Y, V37M, H38N, R54A, W100P, D180K", "chain 2": "EVQLVESGGGLVQPGGSLRLSCAASGFTFSSYWMYWVRQAPGKGLEWVAAITPNAGEDYYPESVKGRFTISRDNAKNSLYLQMNSLRAEDTAVYYCARGHYYYTSYSLGYWGQGTLVTVSSASTKGPSVFPLAPSSKSTSGGTAALGCLVKDYFPEPVTVSWNSGALTSGVHTFPAVLQSSGLYSLSSVVTVPSSSLGTQTYICNVNHKPSNTKVDKKVEPKSC"}},
  "assay_in_all_cases": "cell-based or functional assay",
  "key": {"human IL-13": {"biological_target": "human IL-13 (human, UniProt P35225 35-146)", "sequence (P35225 35-146 limits assumed)": "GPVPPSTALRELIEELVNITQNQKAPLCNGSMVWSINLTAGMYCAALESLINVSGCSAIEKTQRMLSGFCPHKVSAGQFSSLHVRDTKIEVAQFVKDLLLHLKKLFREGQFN"}, "[1]": {"biological_target": "T1, recombinant human IL-33 (wild type, Ser112-Thr270) (human, UniProt O95760 112-270)", "T1 sequence (looked up)": "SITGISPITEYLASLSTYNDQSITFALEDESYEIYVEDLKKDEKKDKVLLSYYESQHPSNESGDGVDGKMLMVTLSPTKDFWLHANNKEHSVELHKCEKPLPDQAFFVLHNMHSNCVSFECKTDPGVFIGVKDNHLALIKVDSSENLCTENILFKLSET"}, "human IL-4": {"biological_target": "T2, human IL-4 (human, UniProt P05112 25-153)", "T2 sequence (looked up)": "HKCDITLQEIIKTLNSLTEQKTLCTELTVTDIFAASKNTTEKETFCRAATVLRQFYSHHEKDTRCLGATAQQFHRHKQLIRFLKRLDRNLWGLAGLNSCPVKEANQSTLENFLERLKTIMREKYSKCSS"}},
  "note": "Where a chain is given by its changes, count along the chain named.",
  "data": [
    {"binder": "B1", "values": [
      {"measurement": "a-hIL-13 bioassay (IC50, pM)", "setting": "human IL-13", "result": 9.01, "unit": "pM"},
      {"measurement": "a-IL-33 bioassay (WT IL33) IC50 (pM)", "setting": "[1]", "result": 112, "unit": "pM"},
      {"measurement": "a-hIL-4 bioassay IC50, pM)", "setting": "human IL-4", "result": 10.3, "unit": "pM"}
    ]}
  ]
}
